Patent publication US20240043548A1, “PREPARATION AND USE OF ANTI-FSHR ANTIBODY AND ANTIBODY-DRUG CONJUGATE THEREOF” (CANWELL (GZ) BIOTECH LIMITED, priority 2020, published 2024)
Where a SMILES comes first, the peptide text is derived from it. [ ]: non-standard residue; d: D form. Dolaproine = CO[C@@H]([C@@H]1CCCN1)[C@@H](C)C(=O)O; Dil = CC[C@H](C)[C@H](NC)[C@@H](CC(=O)O)OC; NMeV = CN[C@H](C(=O)O)C(C)C

Columns and labels:
OVCAR-3 = test: Cell killing assay, OVCAR-3; format: cell-based; conditions: OVCAR-3 human ovarian cancer cell line
Description: (§1) In this example, the anti-cancer effect of CAN001 antibody-drug conjugate was tested with CellTiter-Glo cell viability assay in a 96-well plate.
(§2) Human ovarian cancer cell lines: OVCAR-3, A2780, and 3A0, all from ATCC.
(§3) Cells were seeded in a 96-well cell culture plate with 1,000 cells per well, and the total amount of the culture medium per well was controlled to 200 μL. After the cells adhered to the wall, the cells were treated with corresponding drugs, and the drugs were withdrawn at different time points (0, 24 h, 48 h, 72 h and 96 h), and MTS detection solution (10 μL MTS reagent+190 μL complete medium) (MTS cell proliferation kit (colorimetry) from AmyJet Scientific) was added. Then, the 96-well cell culture plate was incubated in a CO2 cell incubator for about 2 h away from light. Then, the cell culture plate was taken out and was measured at a wavelength of 492 nm to determine the absorbances of different groups of cells.
(§4) % inhibition and IC50 of each compound were calculated with XLFit curve fitting software.

A2780 = test: Cell killing assay, A2780; format: cell-based; conditions: A2780 human ovarian cancer cell line
Description: as §1, §2, §3, §4

3AO = test: Cell killing assay, 3AO; format: cell-based; conditions: 3AO human ovarian cancer cell line
Description: as §1, §2, §3, §4

human FSHR = target: T1, human FSHR (Homo sapiens, UniProt P23945); test: Flow cytometry analysis of CAN001 antibody on HEK293T cells expressing FSHR; format: binding; conditions: for positive stained rate of the HEK293T cells: HEK293T cells expressing FSHR
T1 construct: a fragment containing the FSHR gene was obtained by PCR with the cDNA as a template and FSHR-F and FSHR-R as primers; expressed in transfected cells; host or cells: HEK293T
T1 sequence (P23945 18-695): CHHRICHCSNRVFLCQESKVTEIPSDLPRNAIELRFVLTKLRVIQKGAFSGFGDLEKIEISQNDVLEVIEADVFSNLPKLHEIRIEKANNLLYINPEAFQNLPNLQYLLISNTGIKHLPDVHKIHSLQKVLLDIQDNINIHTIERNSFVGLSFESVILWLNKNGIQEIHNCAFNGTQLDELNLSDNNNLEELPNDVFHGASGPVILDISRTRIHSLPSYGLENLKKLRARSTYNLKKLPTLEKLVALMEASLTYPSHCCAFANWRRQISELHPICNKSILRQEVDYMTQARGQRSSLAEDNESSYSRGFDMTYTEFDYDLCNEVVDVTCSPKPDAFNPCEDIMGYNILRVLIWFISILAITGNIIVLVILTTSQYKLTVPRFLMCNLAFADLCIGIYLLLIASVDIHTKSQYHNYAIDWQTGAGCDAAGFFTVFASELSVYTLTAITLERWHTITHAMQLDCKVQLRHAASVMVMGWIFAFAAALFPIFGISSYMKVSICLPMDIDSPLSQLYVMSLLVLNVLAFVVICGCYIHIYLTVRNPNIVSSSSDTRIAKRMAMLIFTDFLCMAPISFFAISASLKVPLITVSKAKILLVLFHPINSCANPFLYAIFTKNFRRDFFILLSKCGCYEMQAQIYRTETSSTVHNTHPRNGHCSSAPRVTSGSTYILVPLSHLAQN
Description: HEK293T cells were transfected with pMSGβ3_FSHR plasmid to obtain HEK293T cells expressing FSHR as the experimental group. HEK293T cells were transfected with pmaxGFP(Lonza) to obtain HEK293T cells expressing GFP protein as the negative control. After incubation with the supernatant containing the CAN001 antibody obtained in Example 3, the cells of the experimental group and negative control were stained with the CAN001 antibody and then the cells were washed and incubated with APC conjugated goat anti-mouse IgG secondary antibody. Flow cytometry was done with BD calibur and analyzed with Cellquest software.
In order to further screen the best CAN001 supernatant, HEK293T cells were co-transfected with a mixture of plasmids pcDNA3.1_CAN001 HC and pcDNA3.1_CAN001 LC with different proportions (mass ratios of pcDNA3.1_CAN001 HC to pcDNA3.1_CAN001 LC from left to right in FIG. 3 were 1:2, 1:1 and 1:3 respectively) and 25 kD linear PEI polymer according to a mass ratio of vector to polymer of 1:3. Seventy-two hours after transfection, the supernatant was collected and used to stain HEK293T cells expressing FSHR, and HEK293T cells expressing GFP protein were used as the negative control. The steps were as described above. […] The mass ratio of pcDNA3.1_CAN001 HC to pcDNA3.1_CAN001 LC of 1:2 was selected to prepare the supernatant containing CAN001 antibody.

CC[C@H](C)[C@@H]([C@@H](CC(=O)N1CCC[C@H]1[C@H](OC)[C@@H](C)C(=O)N[C@@H](Cc1ccccc1)C(=O)O)OC)N(C)C(=O)[C@@H](NC(=O)[C@@H](NC)C(C)C)C(C)C [MMAF, monomethylauristatin F] (H-[NMeV]V[Dil][Dolaproine]F-OH)
IC50 (OVCAR-3): 205 nM
IC50 (A2780): 223 nM
IC50 (3AO): 301 nM

B1: CAN001: Mouse anti-human FSHR monoclonal antibody; light chain SEQ ID NO: 3, heavy chain SEQ ID NO: 4 (protein)
light: MALPVTALLLPLALLLHAARPQIVLTQSPVIMSASPGEKVTLTCSASSSVSSSYLYWYQQKPGSSSKLWIYSTSNLASGVPARFSGSGSGTSYSLTISSMEAEDAASYFCHQWSSYPPTFGGGTKLEIKRADAAPTVSIFPPSSEQLTSGGASVVCFLNNFYPKDINVKWKIDGSERQNGVLNSWTDQDSKDSTYSMSSTLTLTKDEYERHNSYTCEATHKTSTSPIVKSFNRNEC
heavy: MEFGLSWVFLVALFRGVQCASQVQLQQPGAELVKPGASVNLSCKASGYTFTSYWMHWVKQRPGQGREWIGEINPRNGRTNYNEKFKSKATLTVDKSSSTAYMQLSSLTSEDSAVYCCARLSVGFAYWGQGTLVTVSAAKTTAPSVYPLAPVCGDTTGSSVTLGCLVKGYFPEPVTLTWNSGSLSSGVHTFPAVLQSDLYTLSSSVTVTSSTWPSQSITCNVAHPASSTKVDKKLEPRGPTIKPCPPCKCPAPNAAGGPSVFIFPPKIKDVLMISLSPIVTCVVVDVSEDDPDVQISWFVNNVEVHTAQTQTHREDYNSTLRVVSALPIQHQDWMSGKEFKCKVNNKDLGAPIERTISKPKGSVRAPQVYVLPPPEEEMTKKQVTLTCMVTDFMPEDIYVEWTNNGKTELNYKNTEPVLDSDGSYFMYSKLRVEKKNWVERNSYSCSVVHEGLHNHHTTKSFSRTPGK
modifications: Light chain amino acid sequence; Heavy chain amino acid sequence
staining of FSHR-expressing versus GFP-expressing HEK293T cells (human FSHR; supernatant containing CAN001 antibody, APC goat anti-mouse IgG secondary, GFP-expressing cells as negative control): specifically stained FHSR-expressing cells but not GFP-expressing cells
positive stained rate of the HEK293T cells (human FSHR; supernatant from mass ratio pcDNA3.1_CAN001 HC to LC 1:1): 30.02%
positive stained rate of the HEK293T cells (human FSHR; supernatant from mass ratio pcDNA3.1_CAN001 HC to LC 1:2): 38.3%
positive stained rate of the HEK293T cells (human FSHR; supernatant from mass ratio pcDNA3.1_CAN001 HC to LC 1:3): 34.75%
IC50 (OVCAR-3): > 1000 nM
